B1: Azoarcus group I ribozyme (parent)
chain: GUGCCUUGCGCCGGGAAACCACGCAAGGGAUGGUGUCAAAUUCGGCGAAACCUAAGCGCCCGCCCGGGCGUAUGGCAACGCCGAGCCAAGCUUCGGCGCCUGCGCCGAUGAAGGUGUAGAGACUAGACGGCACCCACCUAAGGCAAACGCUAUGGUGAAGGCAUAGUCCAGGGAGUGGCGAAAGUCACACAAACCGG

Variants of: B1
Experiment: reverse-splicing fitness (ratio to wild type); higher = more active; in vitro selection; Mg2+ level not given
How it was run: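 An in vitro group I ribozyme library with randomized positions was T7-transcribed and gel-purified. In triplicate, 10 pmol RNA in EPPS pH 7.5 was reacted with 50 pmoles of a 30-nt RNA substrate for 1 h at 37 °C across several added MgCl2 levels (1–48 mM), then stopped with EDTA. Products were reverse transcribed from a substrate-complementary primer, PCR-amplified and sequenced (HiSeq 4000). Fitness is a variant's read proportion after selection over that before, normalised to wild type.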

| Variant | reverse-splicing fitness |
| --- | --- |
| GUGCCUUGCGCCGGGAAACCACGCAAGGGAUGGUGUCAAAUUCGGCGAAACCUAAGCGCCCGCCCGGGCGUAUGGCAACGCUGAGCCAAGCUUCGGCGCCUGCGCCGAUGCAGGUGUAGGGACUAGACGGCACCCACCUAAGGCAAACGCUAUGGUGAAGGCAUAGUCAAGGGAGCGGCGAAAGUCACACAAACCGG [C82U A111C A120G C169A U176C] | 0.019 |
| GUGCCUUGCGCCGGGAAACCACGCAAGGGAUGGUGUCAAAUUCGGCGAAACCUAAGCGCCCGCCCGGGCGUAUGGCAACGCUGAGCCAAGCUUCGGCGCCUGCGCCGAUGCAGGUGUAGGGACUAGACGGCACCCACCUAAGGCAAACGCUAUGGUGAAGGCAUAGUCAAGGGAGGGGCGAAAGUCACACAAACCGG [C82U A111C A120G C169A U176G] | 0.00418 |
| GUGCCUUGCGCCGGGAAACCACGCAAGGGAUGGUGUCAAAUUCGGCGAAACCUAAGCGCCCGCCCGGGCGUAUGGCAACGCUGAGCCAAGCUUCGGCGCCUGCGCCGAUGCAGGUGUAGGGACUAGACGGCACCCACCUAAGGCAAACGCUAUGGUGAAGGCAUAGUCGAGGGAGUGGCGAAAGUCACACAAACCGG [C82U A111C A120G C169G] | 0.0104 |
| GUGCCUUGCGCCGGGAAACCACGCAAGGGAUGGUGUCAAAUUCGGCGAAACCUAAGCGCCCGCCCGGGCGUAUGGCAACGCUGAGCCAAGCUUCGGCGCCUGCGCCGAUGCAGGUGUAGGGACUAGACGGCACCCACCUAAGGCAAACGCUAUGGUGAAGGCAUAGUCGAGGGAGAGGCGAAAGUCACACAAACCGG [C82U A111C A120G C169G U176A] | 0.0161 |
| GUGCCUUGCGCCGGGAAACCACGCAAGGGAUGGUGUCAAAUUCGGCGAAACCUAAGCGCCCGCCCGGGCGUAUGGCAACGCUGAGCCAAGCUUCGGCGCCUGCGCCGAUGCAGGUGUAGGGACUAGACGGCACCCACCUAAGGCAAACGCUAUGGUGAAGGCAUAGUCGAGGGAGCGGCGAAAGUCACACAAACCGG [C82U A111C A120G C169G U176C] | 0.0209 |
| GUGCCUUGCGCCGGGAAACCACGCAAGGGAUGGUGUCAAAUUCGGCGAAACCUAAGCGCCCGCCCGGGCGUAUGGCAACGCUGAGCCAAGCUUCGGCGCCUGCGCCGAUGCAGGUGUAGGGACUAGACGGCACCCACCUAAGGCAAACGCUAUGGUGAAGGCAUAGUCGAGGGAGGGGCGAAAGUCACACAAACCGG [C82U A111C A120G C169G U176G] | 0.00413 |
| GUGCCUUGCGCCGGGAAACCACGCAAGGGAUGGUGUCAAAUUCGGCGAAACCUAAGCGCCCGCCCGGGCGUAUGGCAACGCUGAGCCAAGCUUCGGCGCCUGCGCCGAUGCAGGUGUAGGGACUAGACGGCACCCACCUAAGGCAAACGCUAUGGUGAAGGCAUAGUCUAGGGAGUGGCGAAAGUCACACAAACCGG [C82U A111C A120G C169U] | 0.0077 |
| GUGCCUUGCGCCGGGAAACCACGCAAGGGAUGGUGUCAAAUUCGGCGAAACCUAAGCGCCCGCCCGGGCGUAUGGCAACGCUGAGCCAAGCUUCGGCGCCUGCGCCGAUGCAGGUGUAGGGACUAGACGGCACCCACCUAAGGCAAACGCUAUGGUGAAGGCAUAGUCUAGGGAGAGGCGAAAGUCACACAAACCGG [C82U A111C A120G C169U U176A] | 0.0158 |
| GUGCCUUGCGCCGGGAAACCACGCAAGGGAUGGUGUCAAAUUCGGCGAAACCUAAGCGCCCGCCCGGGCGUAUGGCAACGCUGAGCCAAGCUUCGGCGCCUGCGCCGAUGCAGGUGUAGGGACUAGACGGCACCCACCUAAGGCAAACGCUAUGGUGAAGGCAUAGUCUAGGGAGCGGCGAAAGUCACACAAACCGG [C82U A111C A120G C169U U176C] | 0.0142 |
| GUGCCUUGCGCCGGGAAACCACGCAAGGGAUGGUGUCAAAUUCGGCGAAACCUAAGCGCCCGCCCGGGCGUAUGGCAACGCUGAGCCAAGCUUCGGCGCCUGCGCCGAUGCAGGUGUAGGGACUAGACGGCACCCACCUAAGGCAAACGCUAUGGUGAAGGCAUAGUCUAGGGAGGGGCGAAAGUCACACAAACCGG [C82U A111C A120G C169U U176G] | 0.00376 |
| GUGCCUUGCGCCGGGAAACCACGCAAGGGAUGGUGUCAAAUUCGGCGAAACCUAAGCGCCCGCCCGGGCGUAUGGCAACGCUGAGCCAAGCUUCGGCGCCUGCGCCGAUGCAGGUGUAGGGACUAGACGGCACCCACCUAAGGCAAACGCUAUGGUGAAGGCAUAGUCCAGGGAGAGGCGAAAGUCACACAAACCGG [C82U A111C A120G U176A] | 0.0155 |
| GUGCCUUGCGCCGGGAAACCACGCAAGGGAUGGUGUCAAAUUCGGCGAAACCUAAGCGCCCGCCCGGGCGUAUGGCAACGCUGAGCCAAGCUUCGGCGCCUGCGCCGAUGCAGGUGUAGGGACUAGACGGCACCCACCUAAGGCAAACGCUAUGGUGAAGGCAUAGUCCAGGGAGCGGCGAAAGUCACACAAACCGG [C82U A111C A120G U176C] | 0.02 |
| GUGCCUUGCGCCGGGAAACCACGCAAGGGAUGGUGUCAAAUUCGGCGAAACCUAAGCGCCCGCCCGGGCGUAUGGCAACGCUGAGCCAAGCUUCGGCGCCUGCGCCGAUGCAGGUGUAGGGACUAGACGGCACCCACCUAAGGCAAACGCUAUGGUGAAGGCAUAGUCCAGGGAGGGGCGAAAGUCACACAAACCGG [C82U A111C A120G U176G] | 0.00514 |
| GUGCCUUGCGCCGGGAAACCACGCAAGGGAUGGUGUCAAAUUCGGCGAAACCUAAGCGCCCGCCCGGGCGUAUGGCAACGCUGAGCCAAGCUUCGGCGCCUGCGCCGAUGCAGGUGUAGUGACUAGACGGCACCCACCUAAGGCAAACGCUAUGGUGAAGGCAUAGUCCAGGGAGUGGCGAAAGUCACACAAACCGG [C82U A111C A120U] | 0.0257 |
| GUGCCUUGCGCCGGGAAACCACGCAAGGGAUGGUGUCAAAUUCGGCGAAACCUAAGCGCCCGCCCGGGCGUAUGGCAACGCUGAGCCAAGCUUCGGCGCCUGCGCCGAUGCAGGUGUAGUGACUAGACGGCACCCACCUAAGGCCAACGCUAUGGUGAAGGCAUAGUCCAGGGAGUGGCGAAAGUCACACAAACCGG [C82U A111C A120U A145C] | 0.0226 |

Reference: the RNAGym collection of RNA variant scans (doi:10.1093/molbev/msab373)
